This note sets out measurements from patent US20100150906A1 (AC IMMUNE S A, published 2010).

Assay [1] concerns the target T1, amyloid beta 1-42 monomers (UniProt P05067 672-713).
T1 construct: domain: amyloid beta 1-42; also called Aβ1-42 monomers; amyloid monomers
As to the kind of experiment: ELISA on coated amyloid (55 µg/ml); mC2 at 0.156 ug/ml. How it is done:
(§1) In order to evaluate the specificity of mC2 to different stages of polymerized amyloid protein, monomeric, polymeric soluble and fibrillic amyloid, an ELISA coated with these different stages of polymeric beta-amyloid was performed (FIG. 9). Monomers were prepared according to a modified method published by (Klein, 2002), soluble polymeric amyloid beta according to (Barghorn et al., 2005), whereas fibers were performed by incubation of amyloid (Bachem, Switzerland) with a final concentration of 1 μg/μl in Tris/HCl pH 7.4 at 37° C. for 5 days followed by a centrifugation step (10,000 rpm for 5 minutes). Then amyloid polymers were coated on an ELISA plates with a final concentration of 55 μg/ml and binding affinity ELISA by using an anti-mouse IgG monoclonal antibody (Jackson) labelled with alkaline phosphate was performed.
A general note: ELISA stands for enzyme-linked immunosorbent assay.

Assay [2] deals with T2, soluble polymeric amyloid beta (oligomers) (UniProt P05067 672-713).
T2 construct: domain: amyloid beta 1-42; also called amyloid oligomers; Abeta oligomer
T2 sequence (P05067 672-713 limits assumed): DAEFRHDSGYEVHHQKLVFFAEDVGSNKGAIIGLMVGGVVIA
Described as above. The protocol:
as §1

In another assay the target is T3, amyloid beta 1-42 fibers (UniProt P05067 672-713).
T3 construct: domain: amyloid beta 1-42; Many copies per fiber; also called Aβ1-42 fibers; fibrillar Aβ1-42
T3 sequence (P05067 672-713 limits assumed): as above
Described as above. How it is done:
as §1

For another assay, the target named is T4, peptide 18 (also: biotinylated, site not given here).
T4 construct: also called 18 on the axis Peptide number; first peptide library
T4 peptide: VFFAEDVGS
As to the kind of experiment: ELISA, biotinylated peptide on streptavidin plate, O.D. 405 nm [upper chart, Figure 1]. From the text:
(§2) One library comprised a total of 33 biotinylated peptides covering the complete amino acid (aa) sequence of Aβ1-42 (produced by Mimotopes and purchased from ANAWA Trading SA), the second library contains biotinylated peptides using peptide 12 (aa12-20 of Aβ) from the first peptide library and substituting each aa in the sequence by an alanine (see table 8 below), and the third library contains biotinylated peptides 13, 14, or 15 (aa 13-21, 14-22 or 15-23 of Aβ) and substituting in each case the last amino acids to an alanine or to a glycine for aa 21 which is already an alanine (see table 9 below). A biotinylated complete Aβ1-42 peptide was used as positive control (Bachem). Epitope mapping was done according to the manufacturer's (Mimotopes) instructions. Briefly, Streptavidin coated plates (NUNC) were blocked with 0.1% BSA in PBS overnight at 4° C. After washing with PBS-0.05% Tween 20, plates were coated for 1 hour at RT with the different peptides from the library, diluted in 0.1% BSA, 0.1% Sodium Azide in PBS to a final concentration of 10 μM. […] Plates were washed again and incubated with alkaline phosphatase conjugated goat anti human IgG for 1 h at RT.

The target of the next assay is T5, peptide 2 (also: biotinylated, site not given here).
T5 construct: also called 2 on the axis Peptide number; first peptide library
T5 peptide: AEFRHDSGY
The description is as above.
Source text: as §2

A further assay concerns the target T6, peptide 23 (also: biotinylated, site not given here).
T6 construct: also called 23 on the axis Peptide number; first peptide library
T6 peptide: DVGSNKGAI
Described as above.
Source text: as §2

Another assay addresses T7, peptide 25 (also: biotinylated, site not given here).
T7 construct: also called 25 on the axis Peptide number; first peptide library
T7 peptide: GSNKGAIIG
Described as above.
Source text: as §2

A further assay has as its target T8, peptide 22 (also: biotinylated, site not given here).
T8 construct: also called 22 on the axis Peptide number; first peptide library
T8 peptide: EDVGSNKGA
The assay is described as above.
Source text: as §2

A further assay has as its target T9, peptide 5 (also: biotinylated, site not given here).
T9 construct: also called 5 on the axis Peptide number; first peptide library
T9 peptide: RHDSGYEVH
The assay is described as above.
Source text: as §2

The next assay addresses T10, peptide 20 (also: biotinylated, site not given here).
T10 construct: also called 20 on the axis Peptide number; first peptide library
T10 peptide: FAEDVGSNK
The description is as above.
Source text: as §2

The target of a further assay is T11, peptide 8 (also: biotinylated, site not given here).
T11 construct: also called 8 on the axis Peptide number; first peptide library
T11 peptide: SGYEVHHQK
The description is as above.
Source text: as §2

The target of another assay is T12, peptide 1 (also: biotinylated, site not given here).
T12 construct: also called 1 on the axis Peptide number; first peptide library
T12 peptide: DAEFRHDSG
The description is as above.
Source text: as §2

A further assay has as its target T13, peptide 7 (also: biotinylated, site not given here).
T13 construct: also called 7 on the axis Peptide number; first peptide library
T13 peptide: DSGYEVHHQ
Described as above.
Source text: as §2

A further assay concerns the target T14, peptide 30 (also: biotinylated, site not given here).
T14 construct: also called 30 on the axis Peptide number; first peptide library
T14 peptide: AIIGLMVGG
The description is as above.
Source text: as §2

The next assay deals with T15, peptide 32 (also: biotinylated, site not given here).
T15 construct: also called 32 on the axis Peptide number; first peptide library
T15 peptide: IGLMVGGVV
The assay is described as above.
Source text: as §2

A further assay addresses T16, peptide 9 (also: biotinylated, site not given here).
T16 construct: also called 9 on the axis Peptide number; first peptide library
T16 peptide: GYEVHHQKL
Described as above.
Source text: as §2

The target in another assay is T17, peptide 10 (also: biotinylated, site not given here).
T17 construct: also called 10 on the axis Peptide number; first peptide library
T17 peptide: YEVHHQKLV
The assay is described as above.
Source text: as §2

No end group written: not given here.

T1 sequence (P05067 672-713 limits assumed): as above

B1: mouse monoclonal antibody ACI-01-Ab7C2 (antibody, V domains shown)
VH: EVQLVESGGGLVQPGGSLKLSCAASGFTFSSYGMSWVRQTPDKRLELVASINSNGGSTYYPDSVKGRFTISRDNAKNTLYLQMSSLKSEDTAMYYCASGDYWGQGSTLTVSS
VL: DVVMTQTPLSLPVSLGDQASISCRSSQSLVYSNGDTYLHWYLQKPGQSPKLLIYKVSNRFSGVPDRFSGSGSGTDFTLKISRVEAEDLGVYFCSQSTHVPWTFGGGTKLEIK
notes: also called mC2; mACI-01-Ab7 C2
Regarding B1, the O.D came to 0.397 O.D in assay [1], 1.04 O.D in assay [2] and 0.631 O.D with amyloid beta 1-42 fibers.

B2: humanized anti-human amyloid beta monoclonal antibody hC2 (antibody, human IgG4 S228P, kappa, V domains shown)
VH: EVQLVESGGGLVQPGGSLRLSCAASGFTFSSYGMSWVRQAPGKGLELVASINSNGGSTYYPDSVKGRFTISRDNAKNSLYLQMNSLRAEDTAVYYCASGDYWGQGTTVTVSS
VL: DIVMTQSPLSLPVTPGEPASISCRSSQSLVYSNGDTYLHWYLQKPGQSPQLLIYKVSNRFSGVPDRFSGSGSGTDFTLKISRVEAEDVGVYYCSQSTHVPWTFGQGTKVEIKR
notes: also called humanized antibody C2; humanized C2
With B2, the binding result with peptide 18, in the assay with peptide 2, with peptide 23, with peptide 25, with peptide 22 and with peptide 5 was “no binding (tested: 200 ng/ml (single concentration))” in each case. Moreover, the binding result with peptide 20, in the assay with peptide 8, in the assay with peptide 1, with peptide 7, with peptide 30 and in the assay with peptide 32 was “no binding (tested: 200 ng/ml (single concentration))” in each case. Besides, the binding result with peptide 9 and with peptide 10 was “no binding (tested: 200 ng/ml (single concentration))” throughout.
